# Measured values reported in US20120277161A1 (INTER K, published 2012).
# Molecular target: human ERK2 (human, UniProt P28482 1-360)
# Assay: cell-based or functional assay
# Sequence of human ERK2 (P28482 whole entry): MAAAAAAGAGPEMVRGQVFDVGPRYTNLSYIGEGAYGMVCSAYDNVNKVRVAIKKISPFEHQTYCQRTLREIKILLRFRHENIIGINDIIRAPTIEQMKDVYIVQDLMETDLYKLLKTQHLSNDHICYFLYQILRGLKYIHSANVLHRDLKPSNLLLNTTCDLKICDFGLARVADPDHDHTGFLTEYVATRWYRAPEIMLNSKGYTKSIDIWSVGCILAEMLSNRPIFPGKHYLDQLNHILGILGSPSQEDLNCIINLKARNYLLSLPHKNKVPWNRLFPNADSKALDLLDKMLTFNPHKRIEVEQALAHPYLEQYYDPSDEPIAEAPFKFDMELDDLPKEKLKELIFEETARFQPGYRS
row,Binder,"inhibition of ERK2 activity relative to control, cell-free assay, peptide at 50 µM"
1,RSRARNPLYR [RSRARNPLYR peptide],4 % inhibition

# Molecular target: cellular Src tyrosine kinase (c-Src) (human, UniProt P12931 1-536, limits assumed)
# Assay: cell-based or functional assay
row,Binder,"% Inhibition of control, c-Src tyrosine kinase activity, cell-free assay, peptide at 50 µM"
1,RARAKNPLYK [RARAKNPLYK peptide],29 % inhibition
2,RSRARNPLYR [RSRARNPLYR peptide],37 % inhibition
3,NPLYR [NPLYR peptide],0 % inhibition
4,RSKAKNPLYR [RSKAKNPLYR peptide],57 % inhibition
5,RSKAKWQTGTNPLYR [RSKAKWQTGTNPLYR peptide],44 % inhibition
6,WQTGT [WQTGT peptide],0 % inhibition
7,KEKLKNPLFK [KEKLKNPLFK peptide],55 % inhibition
8,RSKAK [RSKAK peptide],3 % inhibition
